Measurements: article PMC12103069
pKd: −log10 of the molar value.

Target: GST-MuRF1 (MuRF1 full length, TRIM63) (Rattus norvegicus)
Assay: other fluorescence titration; change in the initial fluorescence of dye-labelled GST-MuRF (10 nM, constant) with a 16-sample serial dilution of the E2; MonolithX (NanoTemper), premium capillaries, 100% MST power, 25 °C; 50 mM HEPES pH 7.4, 150 mM NaCl, 0.005% Tween20, 0.1% dextran

Chain of GST-MuRF1 (MuRF1 full length, TRIM63) (Rattus norvegicus) (Q91Z63 whole entry): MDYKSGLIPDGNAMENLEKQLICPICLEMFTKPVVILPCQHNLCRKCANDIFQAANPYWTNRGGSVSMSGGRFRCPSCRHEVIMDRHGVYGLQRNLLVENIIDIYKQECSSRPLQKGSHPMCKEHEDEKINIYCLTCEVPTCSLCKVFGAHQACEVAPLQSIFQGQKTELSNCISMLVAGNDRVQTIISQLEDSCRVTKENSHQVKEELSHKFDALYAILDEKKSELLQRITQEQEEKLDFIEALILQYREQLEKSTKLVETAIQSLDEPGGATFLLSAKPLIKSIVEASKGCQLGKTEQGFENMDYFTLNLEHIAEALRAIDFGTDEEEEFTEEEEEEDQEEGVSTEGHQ

**Q.** How did the pKd turn out when “UBE2J2 cytosolic part K26A (from UniProt Q6P073 1-259) (domain or fragment)” was run?
**A.** The pKd was 4.59.

**Q.** With “UBE2J2 cytosolic part N6A,R8A (from UniProt Q6P073 1-259) (domain or fragment)” as the substance, how does the pKd read?
**A.** The pKd was 5.05.

**Q.** “UBE2J2 cytosolic part P10A,T11A (from UniProt Q6P073 1-259) (domain or fragment)” was tested. Which pKd did it give?
**A.** Its pKd is 4.99.
